In assay [1] the target is SARS-CoV-2 RBD (residues 332-527), Lambda variant (SARS-CoV-2, Lambda (C.37), L452Q | F490S).
In assay [2] the target is SARS-CoV-2 RBD (residues 332-527), BQ.1.1 variant (SARS-CoV-2, Omicron BQ.1.1, R346T | K444T | N460K).

The results in this text go back to article doi:10.1101/2025.09.12.675771 (bioRxiv, 2025).

B1: R1-32-Q61E-WT (antibody, V domains shown)
VH: EVQLVQSGAEVKKPGSSVKVSCKASGGTFSSYFISWVRQAPGQGLEWMGGIIPILGIADYAEKFQGRVTITADKSTSTAYMELSSLRSEDTAVYYCARENGYSGYGAAYNFDLWGRGTLVTVSS
VL: QSVLTQPPSVSGAPGQRVTISCTGSDSNIGAGYDVHWYQQLPGTAPKLLIYGNSNRPSGVPDRFSGSKSGTSASLAITGLQAEDEADYYCQSYDSSLSGSVFGGGTKLTVL
Consider B1, for which the binding result in assay [1] and in assay [2] was “binds” throughout.
